The data set is described as follows: self-splicing fitness, log relative to wild type (ln ratio); higher = more splicing; Tetrahymena group I intron in knt gene, E. coli kanamycin selection, DiMSum; sequences stand for … in CUCUCU…GGAGGGAAAAGUUAUCAGGCAUGCACCUGGUAGCUAGUCUUUAAACCAAUAGAUUGCAUCGGUUUAAAAGGCAAGACCGUCAAAUUGCGGGAAAGGGGUCAACAGCCGUUCAGUACCAAGUCUCAGGGGAAACUUUGAGAUGGCCUUGCAAAGGGUAUGGUAAUAAGCUGACGGACAUGGUCCUAACCACGCAGCCAAGUCCUAAGUCAACAGAUCUUCUGUUGAUAUGGAUGCAGUUCACAGACUAAAUGUCGGUCGGGGAAGAUGUAUUCUUCUCAUAAGAUAUAGUCGGACCUCUCCUUAAUGGGAGCUAGCGGAUGAAGUGAUGCAACACUGGAGCCGCUGGGAACUAAUUUGUAUGCGAAAGUAUAUUGAUUAGUUUUGGAGUACUCGUGGUCG
An outline of the steps:
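DiMSum derived fitness as the error-weighted combination of fold changes across replicates, kanamycin versus no kanamycin, normalised to wild type. E. coli BL21(DE3) held the library, which randomised all eight P1ex-region intron nucleotides within the knt kanamycin-resistance gene on pET-22b(+). Six replicate transformations grew overnight at 37°C or 30°C on LB agar with or without 25 μg/mL kanamycin, also containing 100 μg/mL carbenicillin, 50 μM IPTG and 0.2% rhamnose, and pooled colonies were amplicon-sequenced on an Illumina HiSeq 2500.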

± gives the uncertainty stated by the source.

In the case of UGUCAGCAAUAUUACGGUGG, the “self-splicing fitness (ln)” value was -2.14 ± 0.099 (30 °C) and -1.32 ± 0.097 (37 °C).
For AUUAAGCAAUAUUACGUCCU the same measures were -0.24 ± 0.097 and 0.264 ± 0.12.
For AGCAAGCAAUAUUACGUGCG the same measures were -1.25 ± 0.069 and -1.05 ± 0.087.
With AACAAGCAAUAUUACGGCGG, the “self-splicing fitness (ln)” value is -0.998 ± 0.078 (30 °C) and -0.826 ± 0.1 (37 °C).
As for GAGAAGCAAUAUUACGCUUG, the “self-splicing fitness (ln)” value by setting is: (30 °C) -2.34 ± 0.1; (37 °C) -0.658 ± 0.13.
The like results for UGAAAGCAAUAUUACGGUUC were, in that order, -4.11 ± 0.26 and -2.41 ± 0.23.
For UCCAAGCAAUAUUACGGGUC the same measures were -3.16 ± 0.13 and -2.17 ± 0.14.
For GUUCAGCAAUAUUACGUGGU the same measures were -1.03 ± 0.057 and -0.621 ± 0.079.
Take UCGAAGCAAUAUUACGUCGA: the “self-splicing fitness (ln)” value (30 °C) was -3.65 ± 0.47 and the “self-splicing fitness (ln)” value (37 °C) is -1.78 ± 0.19.
Take GCGCAGCAAUAUUACGCCAG: the “self-splicing fitness (ln)” value is -2.22 ± 0.26 (30 °C) and -2.28 ± 0.47 (37 °C).
Turning to CUCAAGCAAUAUUACGCCGA, the “self-splicing fitness (ln)” value (37 °C) was -1.29 ± 0.34.
On to GGGAAGCAAUAUUACGAUCA, for which the “self-splicing fitness (ln)” value reads like this: (30 °C) -0.768 ± 0.33; (37 °C) -0.0795 ± 0.35.
For UCAUAGCAAUAUUACGGCUG the same measures were -1.33 ± 0.11 and -1.12 ± 0.14.
The like results for CAACAGCAAUAUUACGUACU were, in that order, -1.89 ± 0.076 and -0.917 ± 0.097.
For GCUCAGCAAUAUUACGGGUU, the “self-splicing fitness (ln)” value runs as follows: (30 °C) -1.29 ± 0.1; (37 °C) -1.09 ± 0.1.
The like results for AAAGAGCAAUAUUACGUGAU were, in that order, -2.95 ± 0.1 and -1.81 ± 0.12.
As to AUAUAGCAAUAUUACGGUCA, the “self-splicing fitness (ln)” value is -1.16 ± 0.23 (30 °C) and -0.947 ± 0.19 (37 °C).
GUCAAGCAAUAUUACGUGGA: the “self-splicing fitness (ln)” value is -2.86 ± 0.17 (30 °C) and -1.58 ± 0.12 (37 °C).
Take UGUUAGCAAUAUUACGGGGU: the “self-splicing fitness (ln)” value (30 °C) was -2.47 ± 0.26.
Turning to CCCUAGCAAUAUUACGGUUA, the “self-splicing fitness (ln)” value reads like this: (30 °C) -4.05 ± 0.35; (37 °C) -2.71 ± 0.21.
For AAUAAGCAAUAUUACGGGAG the same measures were -2.91 ± 0.19 and -2.14 ± 0.14.
For CUCCAGCAAUAUUACGGAGA the same measures were -3.61 ± 0.27 and -2.21 ± 0.21.
UGUGAGCAAUAUUACGGGAG: the “self-splicing fitness (ln)” value by setting is: (30 °C) -2.52 ± 0.21; (37 °C) -2.04 ± 0.33.
For ACCUAGCAAUAUUACGACAU the same measures were -0.784 ± 0.011 and -0.119 ± 0.032.
In the case of UGCAAGCAAUAUUACGCCUA, the “self-splicing fitness (ln)” value (30 °C) is 0.231 ± 0.073 and the “self-splicing fitness (ln)” value (37 °C) was found to be 0.0781 ± 0.075.
For UUGUAGCAAUAUUACGAUGA the same measures were -0.47 ± 0.13 and 0.0216 ± 0.12.
For AAGCAGCAAUAUUACGUUCU the same measures were -0.454 ± 0.056 and 0.0556 ± 0.076.
As to AACGAGCAAUAUUACGGGGU, the “self-splicing fitness (ln)” value (30 °C) was -3.26 ± 0.35.
As to UAGAAGCAAUAUUACGCCGG, the “self-splicing fitness (ln)” value is, setting by setting: (30 °C) -0.817 ± 0.12; (37 °C) -0.196 ± 0.18.
For UAGUAGCAAUAUUACGUUAC the same measures were -3.78 ± 0.2 and -2.97 ± 0.23.
CUCUAGCAAUAUUACGCCAU: where the note is “37 °C”, the “self-splicing fitness (ln)” value is -3.56 ± 0.33.
Consider GCUGAGCAAUAUUACGAAUU, for which the “self-splicing fitness (ln)” value by setting is: (30 °C) -2.46 ± 0.22; (37 °C) -1.36 ± 0.19.
On to CCUAAGCAAUAUUACGCGUU, for which the “self-splicing fitness (ln)” value is -3.27 ± 0.15 (30 °C) and -2.69 ± 0.16 (37 °C).
The like results for CCGGAGCAAUAUUACGCGCG were, in that order, -2.44 ± 0.2 and -0.558 ± 0.22.
In the case of UACUAGCAAUAUUACGAAGA, the “self-splicing fitness (ln)” value is, setting by setting: (30 °C) -2.32 ± 0.19; (37 °C) -1.86 ± 0.25.
For GUUAAGCAAUAUUACGACUU the same measures were 0.183 ± 0.11 and 0.278 ± 0.13.
The like results for GGCCAGCAAUAUUACGUGGU were, in that order, -3.49 ± 0.21 and -1.76 ± 0.2.
The like results for GUAUAGCAAUAUUACGACCG were, in that order, -2.97 ± 0.35 and -0.999 ± 0.26.
In the case of GAGUAGCAAUAUUACGCUGG, the “self-splicing fitness (ln)” value by setting is: (30 °C) -2.77 ± 0.29; (37 °C) -1.48 ± 0.25.
On to AAGAAGCAAUAUUACGACUU, for which the “self-splicing fitness (ln)” value is -0.363 ± 0.061 (30 °C) and -0.819 ± 0.078 (37 °C).
As for GAUGAGCAAUAUUACGCUAU, the “self-splicing fitness (ln)” value (30 °C) was -2 ± 0.38.
For CAUUAGCAAUAUUACGCAAA, the “self-splicing fitness (ln)” value (37 °C) was -2.25 ± 0.32.
For GCGGAGCAAUAUUACGGCAA, the “self-splicing fitness (ln)” value (37 °C) is -1.74 ± 0.18.
Turning to AUCUAGCAAUAUUACGUGUG, the “self-splicing fitness (ln)” value is, setting by setting: (30 °C) -2.16 ± 0.1; (37 °C) -1.49 ± 0.12.
For GCGGAGCAAUAUUACGAUUA the same measures were -2.93 ± 0.22 and -1.73 ± 0.23.
For the sequence UCGGAGCAAUAUUACGUUAC, for the setting “30 °C”, the “self-splicing fitness (ln)” value is -1.87 ± 0.3.
On to AUGUAGCAAUAUUACGUAUC, for which the “self-splicing fitness (ln)” value was -4.2 ± 0.42 (30 °C) and -2.58 ± 0.3 (37 °C).
UGCCAGCAAUAUUACGCCUA: the “self-splicing fitness (ln)” value by setting is: (30 °C) -0.546 ± 0.074; (37 °C) 0.0605 ± 0.087.
Turning to UGAAAGCAAUAUUACGAAAC, the “self-splicing fitness (ln)” value (37 °C) was -1.79 ± 0.47.
AUCCAGCAAUAUUACGACAG: the “self-splicing fitness (ln)” value is -3.47 ± 0.14 (30 °C) and -1.75 ± 0.19 (37 °C).
On to UAUCAGCAAUAUUACGUGCC, for which the “self-splicing fitness (ln)” value was -4.21 ± 0.34 (30 °C) and -1.95 ± 0.16 (37 °C).
Turning to GGUCAGCAAUAUUACGCUAG, the “self-splicing fitness (ln)” value by setting is: (30 °C) -3.43 ± 0.26; (37 °C) -2.91 ± 0.34.
The like results for CUUGAGCAAUAUUACGUAUC were, in that order, -3.35 ± 0.19 and -3.22 ± 0.33.
Consider UUUGAGCAAUAUUACGUAGG, for which the “self-splicing fitness (ln)” value runs as follows: (30 °C) -2.52 ± 0.16; (37 °C) -1.32 ± 0.23.
In the case of CUUGAGCAAUAUUACGCAUU, the “self-splicing fitness (ln)” value (37 °C) is -2.02 ± 0.35.
GUUGAGCAAUAUUACGCAGA: the “self-splicing fitness (ln)” value (30 °C) is -2.67 ± 0.34 and the “self-splicing fitness (ln)” value (37 °C) was -3.6 ± 0.46.
Take UGACAGCAAUAUUACGGAUU: the “self-splicing fitness (ln)” value is -2.54 ± 0.094 (30 °C) and -2.29 ± 0.13 (37 °C).
The like results for AACUAGCAAUAUUACGACCA were, in that order, -0.23 ± 0.079 and 0.118 ± 0.1.
For GAAUAGCAAUAUUACGAAGA the same measures were -2.78 ± 0.33 and -1.45 ± 0.25.
For ACCCAGCAAUAUUACGAUCU the same measures were -1.34 ± 0.068 and -0.243 ± 0.084.
Regarding UGAAAGCAAUAUUACGUUCG, the “self-splicing fitness (ln)” value was -1.51 ± 0.094 (30 °C) and -0.54 ± 0.11 (37 °C).
The like results for CUCAAGCAAUAUUACGCAGU were, in that order, -3.28 ± 0.18 and -2.32 ± 0.22.
For CCAUAGCAAUAUUACGGAUA, the “self-splicing fitness (ln)” value reads like this: (30 °C) -2.94 ± 0.21; (37 °C) -1.81 ± 0.21.
AGUUAGCAAUAUUACGUUCU: the “self-splicing fitness (ln)” value is -0.403 ± 0.1 (30 °C) and -0.302 ± 0.11 (37 °C).
The like results for CGUCAGCAAUAUUACGCGCG were, in that order, -4.06 ± 0.39 and -2.19 ± 0.36.
In the case of AGAUAGCAAUAUUACGCGCU, the “self-splicing fitness (ln)” value is -2.31 ± 0.12 (30 °C) and -1.44 ± 0.14 (37 °C).
The like results for UGUCAGCAAUAUUACGAGAG were, in that order, -3.21 ± 0.23 and -2.58 ± 0.2.
For AGCCAGCAAUAUUACGGGGU the same measures were -4.08 ± 0.19 and -2.22 ± 0.15.
The like results for CUCCAGCAAUAUUACGGACC were, in that order, -3.65 ± 0.32 and -2.64 ± 0.44.
For GUCUAGCAAUAUUACGUGGG, the “self-splicing fitness (ln)” value is -2.01 ± 0.12 (30 °C) and -1.64 ± 0.16 (37 °C).
As to UAGGAGCAAUAUUACGUGGA, the “self-splicing fitness (ln)” value runs as follows: (30 °C) -2.34 ± 0.38; (37 °C) -1.43 ± 0.22.
As for UGCGAGCAAUAUUACGAAAA, the “self-splicing fitness (ln)” value (30 °C) is -1.24 ± 0.27.
For AUAUAGCAAUAUUACGCGAA, the “self-splicing fitness (ln)” value (37 °C) is -1.32 ± 0.23.
As for UCACAGCAAUAUUACGUGAA, the “self-splicing fitness (ln)” value runs as follows: (30 °C) -2.36 ± 0.1; (37 °C) -1.4 ± 0.1.
For CUAUAGCAAUAUUACGCUAU the same measures were -2.77 ± 0.15 and -1.72 ± 0.27.
For CCUCAGCAAUAUUACGUGCU the same measures were -3.84 ± 0.33 and -2.62 ± 0.39.
For ACACAGCAAUAUUACGUGAG the same measures were -1.02 ± 0.05 and 0.121 ± 0.074.
Regarding GUACAGCAAUAUUACGGUGA, the “self-splicing fitness (ln)” value runs as follows: (30 °C) -1.75 ± 0.14; (37 °C) -0.943 ± 0.12.
The like results for GCUCAGCAAUAUUACGUCAG were, in that order, -4.87 ± 0.42 and -3.23 ± 0.16.
